Assay results reported in patent US20030092037A1, “Elk1 phosphorylation related gene” (priority 2001, published 2003).

B1: 110 (protein, listed as Homo sapiens)
chain: MERPLCSHLCSCLAMLALLSPLSLAQYDSWPHYPEYFQQPAPEYHQPQAPANVAKIQLRLAGQKRKHSEGRVEVYYDGQWGTVCDDDFSIHAAHVVCRELGYVEAKSWTASSSYGKGEGPIWLDNLHCTGNEATLAACTSNGWGVTDCKHTEDVGVVCSDKRIPGFKFDNSLINQIENLNIQVEDIRIRAILSTYRKRTPVMEGYVEVKEGKTWKQICDKHWTAKNSRVVCGMFGFPGERTYNTKVYKMFASRRKQRYWPFSMDCTGTEAHISSCKLGPQVSLDPMKNVTCENGLPAVVSCVPGQVFSPDGPSRFRKAYKPEQPLVRLRGGAYIGEGRVEVLKNGEWGTVCDDKWDLVSASVVCRELGFGSAKEAVTGSRLGQGIGPIHLNEIQCTGNEKSIIDCKFNAESQGCNHEEDAGVRCNTPAMGLQKKLRLNGGRNPYEGRVEVLVERNGSLVWGMVCGQNWGIVEAMVVCRQLGLGFASNAFQETWYWHGDVNSNKVVMSGVKCSGTELSLAHCRHDGEDVACPQGGVQYGAGVACSETAPDLVLNAEMVQQTTYLEDRPMFMLQCAMEENCLSASAAQTDPTTGYRRLLRFSSQIHNNGQSDFRPKNGRHAWIWHDCHRHYHSMEVFTHYDLLNLNGTKVAEGHKASFCLEDTECEGDIQKNYECANFGDQGITMGCWDMYRHDIDCQWVDITDVPPGDYLFQVVINPNFEVAESDYSNNIMKCRSRYDGHRIWMYNCHIGGSFSEETEKKFEHFSGLLNNQLSPQ
B2: 116 (protein, listed as Mus musculus)
chain: MSSAKSARYDRFSGGPANLPSSDSSGTRMETTFGPTFSTVTTITKAADGTGTYKQHRRTPSSSSTLAYSPRDEEDGMEPLVFAEQPSVKLCCQLCCSVFKDPVITTCGHTFCRRCALKSEKCPVDNAKLTVVVNNIAVAEQIGELFIHCRHGCHAAGTGKPGVFEVDPRGCPFTIKLSARKDHESSCDYRPVRCPNNPSCPPLLKMNLEAHLKECEHIKCPHSKYGCTFIGNQDTYETHLETCRFEGLKEFLQQSDDRFHEMHVALAQKDQEIAFLRSMLGKLSEKINQLEKSLELKFDVLDENQSKLSEDLMEFRRDASMLNDELSHINARLNMGILGSYDPQQIFKCKGTFVGHQGPVWCLCVYSMGDLLFSGSSDKTIKVWDTCTTYKCQKTLEGHDGIVLALCIQGCKLYSGSADCTIIVWDIQNLQKVNTIRAHDNPVCTLVSSHNMLFSGSLKAIKVWDIVGTELKLKKELTGLNHWVRALVAAQSYLYSGSYQTIKIWDIRTLDCIHVLQTSGGSVYSIAVTNHHIVCGTYENLIHVWDIESKEQVRTLTGHVGTVYALAVISTPDQTKVFSASYDRSLRVWSMDNMICTQTLLRHQGSVTALAVSRGRLFSGAVDSTVKVWTC
B3: 112 (protein, listed as Homo sapiens)
chain: METTFGPAFSAVTTITKADGTSTYKQHCRTPSSSSTLAYSPRDEEDSMPPISTPRRSDSAISVRSLHSESSMSLRSTFSLPEEEEEPEPLVFAEQPSVKLCCQLCCSVFKDPVITTCGHTFCRRCALKSEKCPVDNVKLTVVVNNIAVAEQIGELFIHCRHGCRVAGSGKPPIFEVDPRGCPFTIKLSARKDHEGSCDYRPVRCPNNPSCPPLLRMNLEAHLKECEHIKCPHSKYGCTFIGNQDTYETHLETCRFEGLKEFLQQTDDRFHEMHVALAQKDQEIAFLRSMLGKLSEKIDQLEKSLELKFDVLDENQSKLSEDLMEFRRDASMLNDELSHINARLNMGILGSYDPQQIFKCKGTFVGHQGPVWCLCVYSMGDLLFSGSSDKTIKVWDTCTTYKCQKTLEGHDGIVLALCIQGCKLYSGSADCTIIVWDIQNLQKVNTIRAHDNPVCTLVSSHNVLFSGSLKAIKVWDIVGTELKLKKELTGLNHWVRALVAAQSYLYSGSYQTIKIWDIRTLDCIHVLQTSGGSVYSIAVTNHHIVCGTYENLIHVWDIESKEQVRTLTGHVGTVYALAVISTPDQTKVFSASYDRSLRVWSMDNMICTQTLLRHQGSVTALAVSRGRLFSGAVDSTVKVWTC
B4: 4 (protein, listed as Homo sapiens)
chain: MSHEKSFLVSGDNYPPPNPGYPGGPQPPMPPYAQPPYPGAPYPQPPFQPSPYGQPGYPHGPSPYPQGGYPQGPYPQGGYPQGPYPQEGYPQGPYPQGGYPQGPYPQSPFPPNPYGQPQVFPGQDPDSPQHGNYQEEGPPSYYDNQDFPATNWDDKSIRQAFIRKVFLVLTLQLSVTLSTVSVFTFVAEVKGFVRENVWTYYVSYAVFFISLIVLSCCGDFRRKHPWNLVALSVLTASLSYMVGMIASFYNTEAVIMAVGITTAVCFTVVIFSMQTRYDFTSCMGVLLVSMVVLFIFAILCIFIRNRILEIVYASLGALLFTCFLAVDTQLLLGNKQLSLSPEEYVFAALNLYTDIINIFLYILTIIGRAKE
B5: 60 (protein, listed as Homo sapiens)
chain: MLGSGFKAERLRVNLRLVINRLKLLEKKKTELAQKARKEIADYLAAGKDERARIRVEHIIREDYLVEAMEILELYCDLLLARFGLIQSMKELDSGLAESVSTLIWAAPRLQSEVAELKIVADQLCAKYSKEYGKLCRTNQIGTVNDRLMHKLSVEAPPKILVERYLIEIAKNYNVPYEPDSVVMVPPQECERMGEALWEDHQRWLDSGREHVVKHPSLVLRFQT
B6: 52 (protein, listed as Homo sapiens)
chain: MAASRLELNLVRLLSRCEAMAAEKRDPDEWRLEKYVGALEDMLQALKVHASKPASEVINEYSWKVDFLKGMLQAEKLTSSSEKALANQFLAPGRVPTTARERVPATKTVHLQSRARYTSEMRSELLGTDSAEPEMDVRKRTGVAGSQPVSEKQSAAELDLVLQRHQNLQEKLAEEMLGLARSLKTNTLAAQSVIKKDNQTLSHSLKMADQNLEKLKTESERLEQHTQKSVNWLLWAMLIIVCFIFISMILFIRIMPKLK
B7: 50 (protein, listed as Homo sapiens)
chain: MAKERRRAVLELLQRPGNARCADCGAPDPDWASYTLGVFICLSCSGIHRNIPQVSKVKSVRLDAWEEAQVEFMASHGNDAARARFESKVPSFYYRPTPSDCQLLREQWIRAKYERQEFIYPEKQEPYSAGYREGFLWKRGRDNGQFLSRKFVLTEREGALKYFNRNDAKEPKAVMKIEHLNATFQPAKIGHPHGLQVTYLKDNSTRNIFIYHEDGKEIVDWFNALRAARFHYLQVAFPGASDADLVPKLSRNYLKEGYMEKTGPKQTEGFRKRWFTMDDRRLMYFKDPLDAFARGEVFIGSKESGYTVLHGFPPSTQGHHWPHGITIVTPDRKFLFACETESDQREWVAAFQKAVDRPMLPQEYAVEAHFKHKP
B8: 68 (protein, listed as Homo sapiens)
chain: MLKEEQEVAMLGVPHNPAPPMSTVIHIRSETSVPDHVVWSLFNTLSMNTCCLGFIAFAYSVKSRDRKMVGDVTGAQAYASTAKCLNIWALILGIFMTILLIIIPVLVVQAQR
B9: 44 (protein, listed as Homo sapiens)
chain: MEDEEVAESWEEAADSGEIDRRLEKKLKITQKESRKSKSPPKVPIVIQDDSLPAGPPPQIRILKRPTSNGVVSSPNSTSRPTLPVKSLAQREAEYAEARKRILGSASPEEEQEKPILDRPTRISQPEDSRQPNNVIRQPLGPDGSQGFKQRR

test system: MAP kinase cascade activation; assay: Reporter activity reflecting MAP kinase cascade activation, corrected using an internal control (Elk1-GAL4 luciferase reporter in 293-EBNA cells); format: cell-based, human; conditions: 12.5 ng/well expression plasmid; 293-EBNA cells; 24 hours
Procedure: (in the presence of 5% CO2). […] The method used for introduction was in accordance with the attached protocol. After culturing for 24 hours at 37° C., reporter activity (firefly luciferase acitivity), which reflects MAP kinase cascade activation, and reporter activity being the internal control (sea pansy luciferase) were measured using Picagene Dual (purchased from Toyo Ink Manufacturing) in accordance with the manufacturer's instructions.
Luciferase activity was measured with Perkin Elmer's Wallac ARVOTMST 1420 MULTILABEL COUNTER.
Reporter activity where an expression plasmid comprising the above gene was introduced, which reflects MAP kinase cascade activation corrected with internal control reporter activity, is shown in Table 1, which is expressed as a factor of the same reporter activity where a null vector was introduced (S/B value).

Row | Molecule | Reporter activity corrected with internal control, as a factor of null vector (S/B value)
1 | B1 | 2.3
2 | B2 | 11.9
3 | B3 | 7.6

same assay, conditions: 25 ng/well expression plasmid; 293-EBNA cells; 24 hours

Row | Molecule | Reporter activity corrected with internal control, as a factor of null vector (S/B value)
4 | B4 | 2.1
5 | B5 | 2.0
6 | B6 | 2.3
7 | B1 | 3.4
8 | B7 | 2.3
9 | B2 | 17.3
10 | B8 | 2.3
11 | B9 | 9.1
12 | B3 | 2.2

same assay, conditions: 50 ng/well expression plasmid; 293-EBNA cells; 24 hours

Row | Molecule | Reporter activity corrected with internal control, as a factor of null vector (S/B value)
13 | B4 | 4.1
14 | B5 | 2.6
15 | B6 | 3.6
16 | B1 | 4.7
17 | B7 | 4.3
18 | B2 | 19.9
19 | B8 | 4.0
20 | B9 | 55.4
21 | B3 | 3.1

same assay, conditions: 100 ng/well expression plasmid; 293-EBNA cells; 24 hours

Row | Molecule | Reporter activity corrected with internal control, as a factor of null vector (S/B value)
22 | B4 | 4.5
23 | B5 | 4.2
24 | B6 | 5.4
25 | B7 | 3.8
26 | B8 | 7.3
27 | B9 | 64.5

same assay, conditions: plasmid 12.5 ng, 25 ng, 50 ng and 100 ng

Row | Molecule | Dependence of corrected reporter activity on amount of expression plasmid
28 | B4 | increases that were dependent on the amount of expression plasmid
29 | B5 | increases that were dependent on the amount of expression plasmid
30 | B6 | increases that were dependent on the amount of expression plasmid
31 | B1 | increases that were dependent on the amount of expression plasmid
32 | B7 | increases that were dependent on the amount of expression plasmid
33 | B2 | increases that were dependent on the amount of expression plasmid
34 | B8 | increases that were dependent on the amount of expression plasmid
35 | B9 | increases that were dependent on the amount of expression plasmid
36 | B3 | increases that were dependent on the amount of expression plasmid
